Source: patent US20240043552A1 (Eli Lilly, published 2024)

Assays:
hEGFR-Fc-biotin = target: T1, hEGFR-Fc-biotin (human, UniProt P00533 25-645, biotin-labelled with EZ-LINK Sulfo-NHS-LC-Biotin); test: sandwich ELISA with mis-matched antigens
T1 construct: Bought (R&D systems); Detection antigen of the sandwich; not shown: Fc of the bought fusion protein
Description: (§1) The dual-binding activity of the same synthesized IgG BsAbs is assessed using a sandwich ELISA. […] Sandwich ELISAs are developed for detecting the four different BsAb test articles; one for detecting anti-HER-2/anti-EGFR BsAb activity, one for detecting anti-HER-2/anti-LTPR BsAb activity, one for detecting anti-cMET/anti-EGFR BsAb activity and one for detecting anti-cMET/anti-LTPR BsAb activity. For all ELISAs, clear 96-well round bottom high binding Immulon microtiter plates (Greiner bio-one, cat #650061) are coated overnight at 2-8° C. with 50 μL/well 1 μg/mL hHER-2-Fc or 1 μg/mL hHGFR(cMet)-Fc (both from R&D systems) in a 50 mM Na2CO3 pH 8.3 buffer. The plates are washed 4 times with PBST and blocked with 200 μL/well casein buffer (Pierce) for 1 hr at room temperature. The plates are then washed 4 times with PBST and the parental IgG controls or BsAb IgG test articles are added at 50 μL/well and […] and serially diluted 1:3 down the plate. The controls and test articles are incubated on the plate for 1 hr at room temperature. The plates are then washed 4 times with PBST and 50 μL/well 1 μg/mL hEGFR-Fc-biotin or hLTβR-Fc-biotin (both from R&D systems) is added for 1 hr at room temperature. The plates are then washed 4 times with PBST followed by the addition of a 50 μL/well streptavidin-AP (Jackson Immunoresearch Labs Cat. #016-050-084) diluted 1:1000 in casein buffer. The streptavidin-AP is incubated in each well for 1 hr at room temperature. The plates are then washed 4 times with PBST and 100 μL/well 1-step PNPP substrate is added (Thermo Scientific Cat. #37621). After approximately 5-15 minutes, plates are read for Absorbance (405 nm) using a SPECTRAMAX® UV plate reader (Molecular Devices). Biotin-labeling of the hEGFR-Fc and hLTβR-Fc proteins is performed using EZ-LINK™ Sulfo-NHS-LC-Biotin (Thermo Scientific Cat. #21327) according to the manufacturer's protocol.

hHER-2-Fc = target: T2, hHER-2-Fc (human, UniProt P04626 23-652); test: sandwich ELISA with mis-matched antigens
T2 construct: Bought (R&D systems); Coated on the plate; not shown: Fc of the bought fusion protein
Description: as §1

| binding result (hEGFR-Fc-biotin) | binding result (hHER-2-Fc) | Binder |
| --- | --- | --- |
| no binding | no binding | MetMAb × BHA10 IgG BsAb, CH1/Cκ Wild-Type (AB / H4DR variable domain designs, 7.8.60 CH3, N297Q) (bispecific antibody, Human IgG1; Tested as protein G purified product of four-plasmid co-expression; also called MetMAb × BHA10 Wild-Type) heavy 1: EVQLVESGGGLVQPGGSLRLSCAASGYTFTSYWLHWVRKAPGKGLEWVGMIDPSNSDTRFNPEFKDRFTISADTSKNTAYLQMNSLRAEDTAVYYCATYRSYVTPLDYWGQGTLVTVSSASTKGPSVFPLAPSSKSTSGGTAALGCLVKDYFPEPVTVSWNSGALTSGVHTFPAVLQSSGLYSLSSVVTVPSSSLGTQTYICNVNHKPSNTKVDKKVEPKSCDKTHTCPPCPAPELLGGPSVFLFPPKPKDTLMISRTPEVTCVVVDVSHEDPEVKFNWYVDGVEVHNAKTKPREEQYQSTYRVVSVLTVLHQDWLNGKEYKCKVSNKALPAPIEKTISKAKGQPREPQVYTLPPSREEMTDNQVSLTCLVKGFYPSDIAVEWESNGQPENNYKTTPPVLMSDGSFFLASKLTVDKSRWQQGNVFSCSVMHEALHNHYTQKSLSLSPG light 1: RIQMTQSPSSLSASVGDRVTITCKSSQSLLYTSSQKNYLAWYQDKPGKAPKLLIYWASTRESGVPSRFSGSGSGTDFTLTISSLQPEDFATYYCQQYYAYPWTFGQGTKVEIKRTVAAPSVFIFPPSDEQLKSGTASVVCLLNNFYPREAKVQWKVDNALQSGNSQESVTEQDSKDSTYSLSSTLTLSKADYEKHKVYACEVTHQGLSSPVTKSFNRGEC heavy 2: QVQLVQSGAEVKKPGSSVKVSCKASGYTFTTYYLHWVRYAPGQGLEWMGWIYPGNVHAQYNEKFKGRVTITADKSTSTAYMELSSLRSEDTAVYYCARSWEGFPYWGRGTTVTVSSASTKGPSVFPLAPSSKSTSGGTAALGCLVKDYFPEPVTVSWNSGALTSGVHTFPAVLQSSGLYSLSSVVTVPSSSLGTQTYICNVNHKPSNTKVDKKVEPKSCDKTHTCPPCPAPELLGGPSVFLFPPKPKDTLMISRTPEVTCVVVDVSHEDPEVKFNWYVDGVEVHNAKTKPREEQYQSTYRVVSVLTVLHQDWLNGKEYKCKVSNKALPAPIEKTISKAKGQPRRPRVYTLPPSREEMTKNQVSLVCLVKGFYPSDIAVEWESNGQPENNYKTTPPVLDSDGSFFLYSVLTVDKSRWQQGNVFSCSVMHEALHNHYTQKSLSLSPG light 2: DIQMTQSPSSLSASVGDRVTITCKASQNVGINVAWYQRKPGDAPKSLISSASYRYSGVPSRFSGSGSGTDFTLTISSLQPEDFATYFCQQYDTYPFTFGQGTKVEIKRTVAAPSVFIFPPSDEQLKSGTASVVCLLNNFYPREAKVQWKVDNALQSGNSQESVTEQDSKDSTYSLSSTLTLSKADYEKHKVYACEVTHQGLSSPVTKSFNRGEC |
| no binding | no binding | MetMAb × BHA10 IgG BsAb, CH1/Cκ design 14.3.1.1 (bispecific antibody, Human IgG1; also called MetMAb × BHA10 14.3.1.1) heavy 1: EVQLVESGGGLVQPGGSLRLSCAASGYTFTSYWLHWVRKAPGKGLEWVGMIDPSNSDTRFNPEFKDRFTISADTSKNTAYLQMNSLRAEDTAVYYCATYRSYVTPLDYWGQGTLVTVSSASTKGPSVFPLAPSSKSTSGGTAALGCLVADYFPEPVTVSWNSGALTSGVHTFPAVLQSSGLYSLASVVTVPSSSLGTQTYICNVNHKPSNTKVDKKVEPKSCDKTHTCPPCPAPELLGGPSVFLFPPKPKDTLMISRTPEVTCVVVDVSHEDPEVKFNWYVDGVEVHNAKTKPREEQYQSTYRVVSVLTVLHQDWLNGKEYKCKVSNKALPAPIEKTISKAKGQPREPQVYTLPPSREEMTDNQVSLTCLVKGFYPSDIAVEWESNGQPENNYKTTPPVLMSDGSFFLASKLTVDKSRWQQGNVFSCSVMHEALHNHYTQKSLSLSPG light 1: RIQMTQSPSSLSASVGDRVTITCKSSQSLLYTSSQKNYLAWYQDKPGKAPKLLIYWASTRESGVPSRFSGSGSGTDFTLTISSLQPEDFATYYCQQYYAYPWTFGQGTKVEIKRTVAAPSVFIFPPSDEQLKSGTARVVCLLNNFYPREAKVQWKVDNALQSGNSQESVTEQDSKDSTYSLISTLTLSKADYEKHKVYACEVTHQGLSSPVTKSFNRGEC heavy 2: QVQLVQSGAEVKKPGSSVKVSCKASGYTFTTYYLHWVRYAPGQGLEWMGWIYPGNVHAQYNEKFKGRVTITADKSTSTAYMELSSLRSEDTAVYYCARSWEGFPYWGRGTTVTVSSASTKGPSVFPLAPSSKSTSGGTAALGCLVKDYFPEPVTVSWNSGALTSGVHTFPAVLQSSGLYSLSSVVTVPSSSLGTQTYICNVNHKPSNTKVDEKVEPKSCDKTHTCPPCPAPELLGGPSVFLFPPKPKDTLMISRTPEVTCVVVDVSHEDPEVKFNWYVDGVEVHNAKTKPREEQYQSTYRVVSVLTVLHQDWLNGKEYKCKVSNKALPAPIEKTISKAKGQPRRPRVYTLPPSREEMTKNQVSLVCLVKGFYPSDIAVEWESNGQPENNYKTTPPVLDSDGSFFLYSVLTVDKSRWQQGNVFSCSVMHEALHNHYTQKSLSLSPG light 2: DIQMTQSPSSLSASVGDRVTITCKASQNVGINVAWYQRKPGDAPKSLISSASYRYSGVPSRFSGSGSGTDFTLTISSLQPEDFATYFCQQYDTYPFTFGQGTKVEIKRTVAAPSVFIFPPSDKQLKSGTASVVCLLNNFYPREAKVQWKVDNALQSGNSQESVTEQDSKDSTYSLSSTLTLSKADYEKHKVYACEVTHQGLSSPVTKSFNRGEC |
| no binding | no binding | MetMAb × BHA10 IgG BsAb, CH1/Cκ design 14.1.2 (bispecific antibody, Human IgG1; also called MetMAb × BHA10 14.1.2) heavy 1: EVQLVESGGGLVQPGGSLRLSCAASGYTFTSYWLHWVRKAPGKGLEWVGMIDPSNSDTRFNPEFKDRFTISADTSKNTAYLQMNSLRAEDTAVYYCATYRSYVTPLDYWGQGTLVTVSSASTKGPSVFPLAPSSKSTSGGTAALGCLVADYFPEPVTVSWNSGALTSGVHTFPAVLQSSGLYSLSSVVTVPSSSLGTQTYICNVNHKPSNTKVDEKVEPKSCDKTHTCPPCPAPELLGGPSVFLFPPKPKDTLMISRTPEVTCVVVDVSHEDPEVKFNWYVDGVEVHNAKTKPREEQYQSTYRVVSVLTVLHQDWLNGKEYKCKVSNKALPAPIEKTISKAKGQPREPQVYTLPPSREEMTDNQVSLTCLVKGFYPSDIAVEWESNGQPENNYKTTPPVLMSDGSFFLASKLTVDKSRWQQGNVFSCSVMHEALHNHYTQKSLSLSPG light 1: RIQMTQSPSSLSASVGDRVTITCKSSQSLLYTSSQKNYLAWYQDKPGKAPKLLIYWASTRESGVPSRFSGSGSGTDFTLTISSLQPEDFATYYCQQYYAYPWTFGQGTKVEIKRTVAAPSVFIFPPSDKQLKSGTARVVCLLNNFYPREAKVQWKVDNALQSGNSQESVTEQDSKDSTYSLSSTLTLSKADYEKHKVYACEVTHQGLSSPVTKSFNRGEC heavy 2: QVQLVQSGAEVKKPGSSVKVSCKASGYTFTTYYLHWVRYAPGQGLEWMGWIYPGNVHAQYNEKFKGRVTITADKSTSTAYMELSSLRSEDTAVYYCARSWEGFPYWGRGTTVTVSSASTKGPSVFPLAPSSKSTSGGTAALGCLVKDYFPEPVTVSWNSGALTSGVHTFPAVLQSSGLYSLSSVVTVPSSSLGTQTYICNVNHKPSNTKVDKKVEPKSCDKTHTCPPCPAPELLGGPSVFLFPPKPKDTLMISRTPEVTCVVVDVSHEDPEVKFNWYVDGVEVHNAKTKPREEQYQSTYRVVSVLTVLHQDWLNGKEYKCKVSNKALPAPIEKTISKAKGQPRRPRVYTLPPSREEMTKNQVSLVCLVKGFYPSDIAVEWESNGQPENNYKTTPPVLDSDGSFFLYSVLTVDKSRWQQGNVFSCSVMHEALHNHYTQKSLSLSPG light 2: DIQMTQSPSSLSASVGDRVTITCKASQNVGINVAWYQRKPGDAPKSLISSASYRYSGVPSRFSGSGSGTDFTLTISSLQPEDFATYFCQQYDTYPFTFGQGTKVEIKRTVAAPSVFIFPPSDEQLKSGTASVVCLLNNFYPREAKVQWKVDNALQSGNSQESVTEQDSKDSTYSLSSTLTLSKADYEKHKVYACEVTHQGLSSPVTKSFNRGEC |
